According to paper PMC8072984:
pKd: −log10 of the molar value.

How the values were obtained:
[1] = target: sapC-PUMA chimera (saposin C linked to the BH3 domain of PUMA); assay: NMR titration; [1H-15N]-SOFAST-HMQC at 298 K, 600 MHz; 15N-labelled chimera at 100 µM mixed with unlabeled Bcl-xL-ΔTM (stock 900 µM, pH 6.8) at chimera:Bcl-xL molar ratios 1:0, 1:0.5, 1:1, 1:2; 10% D2O; slow exchange, the upper limit of KD estimated from the chemical shift difference assuming diffusion-controlled kon
[2] = target: Bcl-xL (Homo sapiens) (UniProt Q07817); assay: isothermal titration calorimetry; details: cited from earlier work
Sequence of Bcl-xL (Homo sapiens) (Q07817 whole entry): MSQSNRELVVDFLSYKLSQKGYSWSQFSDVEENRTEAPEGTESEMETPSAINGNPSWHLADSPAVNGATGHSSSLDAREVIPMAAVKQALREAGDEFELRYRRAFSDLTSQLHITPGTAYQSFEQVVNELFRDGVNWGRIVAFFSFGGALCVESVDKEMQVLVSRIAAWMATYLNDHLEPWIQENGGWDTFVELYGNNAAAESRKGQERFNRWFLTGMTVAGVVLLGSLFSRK

Sequence of sapC-PUMA chimera (saposin C linked to the BH3 domain of PUMA) (P07602 other isoform, or with tags, fused parts or gaps mutant): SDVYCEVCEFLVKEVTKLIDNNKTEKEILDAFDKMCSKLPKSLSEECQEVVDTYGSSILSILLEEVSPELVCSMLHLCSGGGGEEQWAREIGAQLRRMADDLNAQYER
Sequence of PUMA BH3 (Q9BXH1 130-156): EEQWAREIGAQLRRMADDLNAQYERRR

Human Bcl-xL-ΔTM (native amino acid sequence without the transmembrane domain) (domain or fragment)
stoichiometry N [1]: 1

PUMA BH3 (from UniProt Q9BXH1)
pKd [2]: 8.52
